# Laboratory results taken from the DeepSol protein solubility set.
# Test: soluble on expression in E. coli; label from the status in PepcDB or PDB records
row,Sequence,soluble on expression in E. coli
1,MKTLTEIKQTPKGIIKADESFNQVKDKIRLPRRILYLGCGSSHFLAKLLAMVTNMHGGTGVALPCSEFLYSKEAYPIGKPELVVGISRSGETTEVLLALEKINTPKLGISAYESSLTRACDYSLVVPTIEESVVMTHSFTAFYFAYLQLLRHSYGLPLLEATEVAKATEKALEYENYIKEIVEDFDFQNVIFLGSGLLYPVALEASLKMKEMAIFWSEAYPTFEVRHGFKAIADENTLVVLMAQELFEWHKKLVNEFKGQRARVLLISNSQQEFGQDYSIEVPRLSKDATPIPYLPVVQLLSYYKAVARGLNPDNPRFLDKVVRWLEHHHHHH,soluble
2,MKTLVVALGGNALLQRGEALTAENQYRNIASAVPALARLARSYRLAIVHGNGPQVGLLALQNLAWKEVEPYPLDVLVAESQGMIGYMLAQSLSAQPQMPPVTTVLTRIEVSPDDPAFLQPEKFIGPVYQPEEQEALEAAYGWQMKRDGKYLRRVVASPQPRKILDSEAIELLLKEGHVVICSGGGGVPVTDDGAGSEAVIDKDLAAALLAEQINADGLVILTDADAVYENWGTPQQRAIRHATPDELAPFAKADGSMGPNVTAVSGYVRSRGKPAWIGALSRIEETLAGEAGTCISL,not soluble
3,MKTMTLYVCQNCGYQSAKWLGKCPDCSAWNSLVEEVRGKGKGPSAPLSGVAPVPICDVAGEAEERLPCGISEFDRVLGGGLVAGSVILIGGDPGIGKSTLLLQVMDHLARTVGPVLYVSGEESARQARLRGERLGIRAKELLILAETALETVLAQIGAVAPRAVVIDSIQTMYAPGLESAPGSVSQVRECAGRLMVAAKRSAIPTFIVGHVTKDGSIAGPRVLEHMVDTVLYFEGDRGHAFRILRAVKNRFGSTNEIGVFEMKEGGLCEVRNPSEIFLSERPLGVSGSAVVTTIEGSRPLLVELQALVTPSSLGVPRRTTLGVDANRLALLVAVLDKKVGLHMAGQDIFLNAAGGARVSEPAADLGMVAALASSHLDKVIDPQTVVVGEVGLAGEVRAITQPETRVREAAKLGFTRAVIPAGSLKQVTAVEGMEVIGVKSVEEALDRLLLEHHHHHH,not soluble
4,MKTNFKQKIIEQARSEGLQVTALREQVLDIVLQQSGVIKAYNVLSQMQQQSEGVLAPPTAYRALDFWAEQGVLHKVAAVNGYILCSHAQHECDDHCHDHEEAEAHHSAFILVCTECGTADEQTLSHEWAALRAGVAESGFALKEEHVVLTGICKKCQQ,not soluble
5,MKTNKKDEETGGNVYAHLDKTSVLQEARAFNETPINARKCCFILSKLIYIIQQGESIGRTEATEAFFGVTKLWQSKDVSLRRMVYLAVKELAEVSDDVIIVTSSLTKDMTGREDLYRAAAIRALCKITDTGMLQTIERYMKQAIVDRNSAISSSAIVSSIHLMRKSSEVVRRWANEVQEAVSSDNHMVQYHALALLYQIRANDRLAVNKLVQKFSKNALRSPYAVCYLIRIATRCLVDDDQPDSSVFTFIESCLRHKSEMVVYEAARAIVSLPQTTPSEIQPAITALQMCCTSPKAAVRFAAVRTLNKVAMAHPNAVMSCNVDLEKFITDPNRSIATLAITTLLKTGAESSVERLMQQIAGFVNEISDEFKIVVVDAIRSLCSRYPRKHTVMMPFLAKMLRSDGSYDYKKAIVETIIAIIEENPDAKVAGLAHLCEFIEDCEHDNLSTRVLHLLGREAPKTPNPSSYIRFIYNRVILESTKVRAAAVTALAKFGAQCVDLRPSIQVLLKRCLLDSDDEVRDRATFYLKMLTEAAEGLIHNFILDGLQVSPSGLERSILDYLRSGSYSSPFDLRVVPVTQQALSQPEKRVPQLVEEEEKPKAPKVEPYAAQLAAIPQFAALGPVFKSSTRIALTESIAEYTVHMIKHTFANAMVLQFECKNTMNDQLLLDVSVELEDPDGEWETGNTVQIDKLPYGEVHSAFSLLEFPDSGAISGSLGAILKFKVMDVDPTSGEPDSDDTYEQTYVLEEVDVNVSDSVQGVAKSSFGSAWEALGDDATREETFQLSTVENIPDAVKKISEILGLVPCERSDRVPEGKTQHTVFLSGVFRGGYDVLSKATVAVDPNDNSIAMNIIIKSNEPLVADLVISAVV,not soluble
6,MKTPARRSKRVNQEESETNVTTRVVLRTRKTNCSKTRAARVRPDYPLTRTTSESEMKLMPPEFFQIDALDLAPRLLGKFMRRDNVVLRITEVEAYRPNDSACHGRFGVTPRTAPVFGPGGHAYVYLCYGLHMMLNIVADKEGVGAAVLIRSCSPVSGMETIQERRGLKTDKPVLLNGPGKVGQALGLSTEWSHHPLYSPGGLELLDGGEDVEKVMVGPRVGIDYALPEHVNALWRFAVADTPWISAPKNTLKPL,soluble
7,MKTQIIGVLGLGIFGQTLATELSSFGQDVIALDNNSTTIDFLADQVTKAAVGDITDIDFLRSAGIDTCDTVIIATGEHLESSALALLHCKKLGITNIIAKATNNNYEEVLYGMGANLVITPERSTAKDLASNILRCNISRIFHLEDDVALIELKIPNEWAGKSLHTLNLRQTYNVNVIGFRNEENGKLNTHFDPMNRLPNEGTILVVSDNRTLEKFDYLGYLKLEHHHHHH,soluble
8,MKTRLNKTSLNQALLPTSTAGSLPKPLWLAEPETLWSPWKLQGEELITGKHDALRLSLQDQQLAGIDIVSDGEQTRQHFVTTFIEHLNGVDFSKRKIVKIRDRYDASVPTVVGPVSRQKSVFVEDAKFLRKQTTQPIKWALPGPMTMIDTLYDDHYKSREKLAWEFAKILNEEAKELEAAGVDIIQFDEPAFNVFFDEVNDWGIACLERAIEGLKCETAVHICYGYGIKANTDWKKTLGSEWRQYEEVFPKLQKSNIDIISLECHNSHVPMELLELIRGKKVMVGAIDVATDTIETAEEVADTLRKALKFVDADKLYPCTNCGMTPLSHQVTRGKLNALSAGAEIVRKELLALR,soluble
9,MKTTKFNIENLDLFYGENQALKSINLPIPTRQVTALIGPSGCGKSTLLRCLNRMNDLIEGVTITGKLTMDGQDVYGNIDVSDLRIRVGMVFQKPNPFPMSIYENVAYGLRAQGIKDKKHLDEVVERSLRGAALWDEVKDRLKSHAFGLSGGQQQRLCIARTIAMEPDVILMDEPTSALDPIATHKIEELMEDLKKNYTIVIVTHSMQQARRISDRTAFFLMGELVEHDDTQVIFSNPRDDRTRGYVNGDFG,not soluble
10,MKTTLFYIMFAYALSTAFPSMMLAQASSIAEVNQGQASKMVIDSSARVLSTLEQQRAQFRQDPKALRQFMETEFTTIFDRDYAARLVLGKYARNASDTDVKLFADAITENLMQRYGNALLTFEGKPNFRAKSESRLPGNRNVRVSTELIRSGADPVAVDYLLRNVNGQWKIFDVMIEGISYVQTFRNQFDAPLRQKGIAQVAAELRSGNLQVGKSNGKAAALEHHHHHH,soluble
11,MKTVRESTTLYNFLGSHNPYWRLTESSDVLRFSTTETTEPDRTLQLSAEQAARIREMTVITSSLMMSLTVDESDLSVHLVGRKINKREWAGNASAWHDTPAVARDLSHGLSFAEQVVSEAHSAIVILDSRGNIQRFNRLCEDYTGLKEHDVIGQSVFKLFMSRREAAASRRNNRVFFRSGNAYEVELWIPTCKGQRLFLFRNKFVHSGSGKNEIFLICSGTDITEERRAQERLRILANTDSITGLPNRNAMQDLIDHAINHADNNKVGVVYLDLDNFKKVNDAYGHLFGDQLLRDVSLAILSCLEHDQVLARPGGDEFLVLASNTSQSALEAMASRILTRLRLPFRIGLIEVYTSCSVGIALSPEHGSDSTAIIRHADTAMYTAKEGGRGQFCVFTPEMNQRVFEYLWLDTNLRKALENDQLVIHYQPKITWRGEVRSLEALVRWQSPERGLIPPLDFISYAEESGLIVPLGRWVILDVVRQVAKWRDKGINLRVAVNISARQLADQTIFTALKQVLQELNFEYCPIDVELTESCLIENDELALSVIQQFSQLGAQVHLDDFGTGYSSLSQLARFPIDAIKLDQVFVRDIHKQPVSQSLVRAIVAVAQALNLQVIAEGVESAKEDAFLTKNGINERQGFLFAKPMPAVAFERWYKRYLKRA,not soluble
12,MKTVTARPLTAEAFAPYGSVADISELENLVSLADAYEGTGEAKTPVLQLVQAKAMSGSPVISQMEIHPFSSQTFLPLDQSSSLIVVCEAGEDGMPDESTIKAFLASPSQIVTYRHGVMHHRLTPLAPSGRFAMTMWQTGRGGDTVLYPLHTPVSVDISDITP,not soluble
13,MKTYHLNNDIIVTQEQLDHWNEQLIKLETPQEIIAWSIVTFPHLFQTTAFGLTGLVTIDMLSKLSEKYYMPELLFIDTLHHFPQTLTLKNEIEKKYYQPKNQTIHVYKPDGCESEADFASKYGDFLWEKDDDKYDYLAKVEPAHRAYKELHISAVFTGRRKSQGSARSQLSIIEIDELNGILKINPLINWTFEQVKQYIDANNVPYNELLDLGYRSIGDYHSTQPVKEGEDERAGRWKGKAKTECGIHEASRFAQFLKQDA,soluble
14,MKVGVIGASEMAGSAIYKLAKQNLEIDVTGIVRHESKAKKVLGDDAKLIVGDIFALSDNILDKFDVIIDAFGTDPKNAEEHVILAKKLINLVRKNKIRVIFILGAGSLHTGDDEHLVVDDIAQMDNADTWINTPRQQLKELEYLNSIDDVDWLGISPALQFEAGPATEYIEGTDELLYNKDGDSKLTSGTMATVVIKETVDSVHHQERITIANALEHHHHHH,soluble
15,MKVKIAFTTTDRIHVNAHFGWAREIDIYEISDHGYEFLETLKFEGDLKEDGSEDKITPKLEALNGCTIVYVVAIGGSAAARLIKGGVTPVKAKSEEEKIEEVLTKLVKTLKGNPPPWLRKALQPKTLNFADEVENEATV,not soluble
16,MKVLLANPRGFCAGVDRAIEIVKRTIDMLGTPIYVRHEVVHNRFVVDDLKQRGAIFVEELHQVPDGATVIFSAHGVSQAVRRQAAQRGLKVFDATCPLVTKVHLDVARHCRTGRDMILIGHAGHPEVEGTMGQWDQERGTGRIYLVENIDDVATLHVAQPHHLAYTTQTTLSVDDTRNIIDALRQRFPTIQGPKNNDICYATQNRQDAVRELARECDLVLVVGSPNSSNSNRLSELAQREGVASYLIDSAAEIDPAWVIDKHHIGVTAGASAPQVLVDGVLARLYELGAT,not soluble
17,MKVMNIIHDSVVDGEGLRTVVFFAGCPHRCVGCHNPKSWNICNGTEMTVEEIVKEIASNPLTDVTFSSGDPFFQAAEVKKVAKIGKDLKKNLWMYTGYTLEEIQSSQNNDMIELLHYGDVLVDGRFEIEEKDLTLPFRGSSNQRIIRLKELEHHHHHH,not soluble
18,MKVVAFNGSPRRDGNTSILIDKVLNELKKEGITTEHIHIAGGKLRGCTACYKCFETLNNKCIIECDIINNCIEKMIEADGIILGSPTYFTDVTAEMKALIDRAGFVAKANDDILKRKVGAAVVSVRRAGGVHVFDTLNHFFSINQMISVGSDYWNLGMGLDIGDVQKDAEGLHTMELLGQNMAWILKKINELEHHHHHH,not soluble
19,MKWRYGAAAGVESRGPHIRVQTVASQVPRGVCWMARVAVVVKVYPDDVSIDPKTLAERIKSKLPSGYEVLAEGEEPIAFGLKALKLVIAMNEDTEGGTEEVEQLLKNIEGVQEVEVENVSRMQ,soluble
20,MKYAVLIGDGMADYPIEELGSRTILQAARTPAMDSIAARGKTGLAKTVPEGFPPGSDVANMSIFGYDPAIYYSGRAPLEAASMGVALAADDVAFRCNLITIENGKIKDYSAGHISSDEAEILIDTLDSELRTEKVRFYPGISYRHLIVAGNDLGAETECLEHHHHHH,soluble
21,MKYFAYGSNMSLLRLKERVPSSKKLGIVTLKKHQLRFNMSGDDDSGKCDSFETNNHEDIVIGALFEIDENEKDALDRAESLGDGYDEKFVFVQSNSGEVFEALTYYAIKIDASLQPYSWYLNHVIIGAKETKLPTDYLAIIESVECIEDPDTSRDAKQRAMYVLEHHHHHH,not soluble
